These results are taken from publication PMC10145791.

The target of one experiment is VEGF-A165 (Homo sapiens) (UniProt P15692). The settings on record: cited from earlier work.
Experiment [1] has as its target recombinant human neuropilin-1 (human) (UniProt O14786). The experiment is described as follows: SPR; SPRi, stage 1: mixtures of NRP-1 (1 ng/mL) with VEGF-A (0.01, 0.10, 1.00, 10.0 ng/mL) dropped onto the immobilised mouse monoclonal anti-NRP-1 antibody (200 ng/mL on cysteamine/gold); read-out is the free NRP-1 that the antibody captures (recovery %); pH 7.4, 10 min. In general terms: SPR reads the build-up and loss of mass on a sensor chip optically.

As a reminder, the Kd is the equilibrium constant for the complex coming apart. Take “neuropilin-1 soluble (from UniProt O14786)”: in the experiment with VEGF-A165 (Homo sapiens), the dissociation constant Kd was 7.5 nM.

On to “vascular endothelial growth factor VEGFA (from UniProt P15692 1-395) (ligand)”, for which, in experiment [1], the recovery of free NRP-1 (1 ng/mL added) on the antibody with 0.01 ng/mL VEGF-A came out at 98%, the recovery of free NRP-1 (1 ng/mL added) on the antibody with 0.10 ng/mL VEGF-A came to 85%, the recovery of free NRP-1 (1 ng/mL added) on the antibody with 1.00 ng/mL VEGF-A came to 36% and the recovery of free NRP-1 (1 ng/mL added) on the antibody with 10.0 ng/mL VEGF-A was under 1%.
